In patent publication US20240254239A1 (LAEKNA THERAPEUTICS SHANGHAI, published 2024):

B1: α-PDGFRb 1 S239D/1332E (antibody, human IgG1, kappa, V domains shown)
VH: QVQLQESGPGLVKPSETLSLTCTVSGFSLTNYAINWVRQPPGKGLEWLGIIWTGGGTSYNSALKSRLTISKDTSKNQVSLKLSSVTAADTAVYYCARTGTRGYFFDYWGQGTLVTVSS
VL: DIQMTQSPSSLSASVGDRVTITCHASQNINVWLSWYQQKPGKAPKLLIYKASNLHTGVPSRFSGSGSGTGFTLTISSLQPEDIATYYCQQGQSFPFTFGGGTKVEIKR
notes: also called α-PDGFRb 1 S239D/I332E; exemplary anti-PDGFRb antibody (α-PDGFRb 1)
B2: α-GPC3 1 mIgG2a S239D/1332E (antibody, V domains shown)
VH: QVQLQQSGAELVRPGASVKLSCKASGYTFTDYEMHWVKQTPVHGLKWIGALDPKTGDTAYSQKFKGKATLTADKSSSTAYMELRSLTSEDSAVYYCTRFYSYTYWGQGTLVTVSA
VL: DVVMTQTPLSLPVSLGDQASISCRSSQSLVHSNGNTYLHWYLQKPGQSPKLLIYKVSNRFSGVPDRFSGSGSGTDFTLKISRVEAEDLGVYFCSQNTHVPPTFGSGTKLEIKR
notes: mIgG2a with S239D/I332E; also called α-GPC3 1 mIgG2a S239D/I332E; exemplary anti-GPC3 antibody (α-GPC3 1)
B3: α-PDGFRb 1-NKG2D KIH S239D/1332E (bispecific antibody, human IgG1, kappa)
heavy: QVQLQESGPGLVKPSETLSLTCTVSGFSLTNYAINWVRQPPGKGLEWLGIIWTGGGTSYNSALKSRLTISKDTSKNQVSLKLSSVTAADTAVYYCARTGTRGYFFDYWGQGTLVTVSSASTKGPSVFPLAPSSKSTSGGTAALGCLVKDYFPEPVTVSWNSGALTSGVHTFPAVLQSSGLYSLSSVVTVPSSSLGTQTYICNVNHKPSNTKVDKKVEPKSCDKTHTCPPCPAPELLGGPDVFLFPPKPKDTLMISRTPEVTCVVVDVSHEDPEVKFNWYVDGVEVHNAKTKPREEQYNSTYRVVSVLTVLHQDWLNGKEYKCKVSNKALPAPEEKTISKAKGQPREPQVCTLPPSREEMTKNQVSLSCAVKGFYPSDIAVEWESNGQPENNYKTTPPVLDSDGSFFLVSKLTVDKSRWQQGNVFSCSVMHEALHNHYTQKSLSLSPGK
chain: FLNSLFNQEVQIPLTESYCGPCPKNWICYKNNCYQFFDESKNWYESQASCMSQNASLLKVYSKEDQDLLKLVKSYHWMGLVHIPTNGSWQWEDGSILSPNLLTIIEMQKGDCALYASSFKGYIENCSTPNTYICMQRTVGGSGGGSGFLNSLFNQEVQIPLTESYCGPCPKNWICYKNNCYQFFDESKNWYESQASCMSQNASLLKVYSKEDQDLLKLVKSYHWMGLVHIPTNGSWQWEDGSILSPNLLTIIEMQKGDCALYASSFKGYIENCSTPNTYICMQRTVGGGGSGGGGSGGGGSGGGGSPKSSDKTHTCPPCPAPELLGGPDVFLFPPKPKDTLMISRTPEVTCVVVDVSHEDPEVKFNWYVDGVEVHNAKTKPREEQYNSTYRVVSVLTVLHQDWLNGKEYKCKVSNKALPAPEEKTISKAKGQPREPQVYTLPPCRDELTKNQVSLWCLVKGFYPSDIAVEWESNGQPENNYKTTPPVLDSDGSFFLYSKLTVDKSRWQQGNVFSCSVMHEALHNHYTQKSLSLSPGK
light: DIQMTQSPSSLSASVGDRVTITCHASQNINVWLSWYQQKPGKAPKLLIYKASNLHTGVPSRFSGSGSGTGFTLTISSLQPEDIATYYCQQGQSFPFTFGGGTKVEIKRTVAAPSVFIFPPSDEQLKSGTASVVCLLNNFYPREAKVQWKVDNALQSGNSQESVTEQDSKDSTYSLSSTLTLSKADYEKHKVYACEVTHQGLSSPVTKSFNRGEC
notes: The Fc carries S239D/I332E; also called α-PDGFRb 1-NKG2D KIH S239D/I332E; knob-into-hole bispecific antibody

Legend:
[1] = target: T1, Human PDGFRb ECD (human, UniProt P09619 33-532); experiment: ELISA on human PDGFRb ECD, luminescence
T1 construct: extracellular domain; also called recombinant extracellular domain of PDGFRb

[2] = target: T1, Human PDGFRb ECD; experiment: direct ELISA on coated recombinant ECD (30 ng/well), HRP-conjugated secondary antibody, luminescence
Protocol: (§1) Briefly, recombinant extracellular domain of PDGFRb, FAPα, ULBP1, uPAR, IGF1R, SIRPA, PD-L1, ANTXR1, CD248, or GPC3 (30 ng/well) was coated on white optiplate™-384 well HB plate. After overnight coating, standard direct ELISA assay was performed. Luminescence signal was detected after using secondary antibody with HRP conjugated. Binding activity of each antibody was determined based on dose dependent binding curve.

[3] = target: T2, human GPC3 ECD (human, UniProt P51654 25-559, limits assumed); experiment: as above
T2 construct: extracellular domain; also called recombinant extracellular domain of GPC3
Protocol: as §1

[4] = target: T3, human MICA ECD (human, UniProt Q29983 24-307); experiment: ELISA on human MICA ECD, luminescence
T3 construct: extracellular domain
T3 sequence (looked up): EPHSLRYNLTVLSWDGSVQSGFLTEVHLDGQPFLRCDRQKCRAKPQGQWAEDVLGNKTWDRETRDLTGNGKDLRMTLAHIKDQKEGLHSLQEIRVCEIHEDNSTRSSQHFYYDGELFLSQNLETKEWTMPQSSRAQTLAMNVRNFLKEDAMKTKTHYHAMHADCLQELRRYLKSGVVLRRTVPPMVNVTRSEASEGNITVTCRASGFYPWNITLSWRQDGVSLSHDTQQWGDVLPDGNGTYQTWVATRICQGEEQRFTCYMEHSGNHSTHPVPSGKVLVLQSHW

T1 sequence (P09619 33-532): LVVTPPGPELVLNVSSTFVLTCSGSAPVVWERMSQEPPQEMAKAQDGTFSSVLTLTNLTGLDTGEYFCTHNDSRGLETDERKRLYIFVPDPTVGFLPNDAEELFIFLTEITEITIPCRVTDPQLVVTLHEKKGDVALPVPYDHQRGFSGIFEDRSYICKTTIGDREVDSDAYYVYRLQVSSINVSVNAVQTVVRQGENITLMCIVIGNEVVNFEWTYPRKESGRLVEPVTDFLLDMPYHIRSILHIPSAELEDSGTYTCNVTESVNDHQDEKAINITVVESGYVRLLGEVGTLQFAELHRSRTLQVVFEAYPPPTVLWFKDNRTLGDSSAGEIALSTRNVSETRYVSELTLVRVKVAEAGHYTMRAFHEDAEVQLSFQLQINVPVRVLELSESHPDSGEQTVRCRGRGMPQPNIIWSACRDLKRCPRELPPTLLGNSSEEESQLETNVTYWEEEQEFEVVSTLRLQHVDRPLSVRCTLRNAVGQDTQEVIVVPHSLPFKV
T2 sequence (P51654 25-559 limits assumed): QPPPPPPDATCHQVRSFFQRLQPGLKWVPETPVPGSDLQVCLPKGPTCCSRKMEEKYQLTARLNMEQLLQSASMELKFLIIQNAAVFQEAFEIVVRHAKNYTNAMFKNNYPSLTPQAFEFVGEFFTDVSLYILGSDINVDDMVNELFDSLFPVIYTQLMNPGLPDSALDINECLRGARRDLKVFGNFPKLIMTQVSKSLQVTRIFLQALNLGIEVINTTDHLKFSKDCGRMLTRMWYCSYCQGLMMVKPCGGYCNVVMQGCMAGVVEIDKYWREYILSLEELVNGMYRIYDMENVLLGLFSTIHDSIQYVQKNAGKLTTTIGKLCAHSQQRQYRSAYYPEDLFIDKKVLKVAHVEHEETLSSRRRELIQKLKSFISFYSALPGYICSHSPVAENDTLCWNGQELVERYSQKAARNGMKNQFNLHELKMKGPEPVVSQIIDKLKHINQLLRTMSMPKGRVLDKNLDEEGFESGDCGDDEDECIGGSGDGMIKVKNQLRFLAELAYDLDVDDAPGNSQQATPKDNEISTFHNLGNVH

Binder | EC50 (read off the curve) [1] [µg/mL] | EC50 (read off the curve) [2] [µg/mL] | EC50 (read off the curve) [3] [µg/mL] | binding result [4]
B1 | ~0.02 | ~0.03 |  | 
B2 |  |  | ~0.02 | 
B3 | ~0.02 |  |  | binds
